Changes are numbered by the printed parent chain.
B1: Mab 149 (antibody, V domains shown)
VH: EVQLLESGGGLVQPGGSLRLSCAASGFTFSWYVMGWVRQAPGKGLEWVSSIYPSGGATNYADSVKGRFTISRDNSKNTLYLQMNSLRAEDTAVYYCARGNYLDYWGQGTLVTVSS
VL: DIQMTQSPGTLSLSPGEGATLSCRASQSVSSNYFGWYQQKPGQAPRLLIYGASSRATGIPDRFSGSGSGTDFTLTISRLEPEDSAVYYCQQFDSSPLSFGGGTKVEIKR
B2: Mab 147 (antibody, V domains shown)
VH: B1 VH with S54Q, N59S, L102F
VL: B1 VL with S95L, S98T
B3: Mab 138 (antibody, V domains shown)
VH: B1 VH with L102F
VL: B1 VL with E17D, G18R, F34L, G35A, L47V, S54T, S64T
B4: DC 101 (a murine monoclonal Ab that binds to murine VEGFR2) (antibody, V domains shown)
VH: EVQLVETGGGLVQPGNSLKLSCATSGFIFSTTWMNWIRQTPGKRLEWLAQIEDKSNNYFISYSESVKGRFTISRDDSKSSVYLQMNNLKEEDTAIYYCSWKYRSNYYFDYWGQGVMVTVSS
VL: DIVLTQSPALAVSLEQRATISCKTSQNVDYYGISYLHWYQQKPGQQPKLLIYEGSNLASGIPARFSGSGSGTDFTLTIDPVEADDIVTYYCQQSKDYPYTFGAGTKLELK

Experiments:
[1] = molecular target: T1, human VEGFR2 (human, UniProt P35968 20-764, limits assumed); assay: Biacore
T1 construct: Antigen in the ELISA and Biacore assays; also called hVEGFR2; KDR
T1 sequence (P35968 20-764 limits assumed): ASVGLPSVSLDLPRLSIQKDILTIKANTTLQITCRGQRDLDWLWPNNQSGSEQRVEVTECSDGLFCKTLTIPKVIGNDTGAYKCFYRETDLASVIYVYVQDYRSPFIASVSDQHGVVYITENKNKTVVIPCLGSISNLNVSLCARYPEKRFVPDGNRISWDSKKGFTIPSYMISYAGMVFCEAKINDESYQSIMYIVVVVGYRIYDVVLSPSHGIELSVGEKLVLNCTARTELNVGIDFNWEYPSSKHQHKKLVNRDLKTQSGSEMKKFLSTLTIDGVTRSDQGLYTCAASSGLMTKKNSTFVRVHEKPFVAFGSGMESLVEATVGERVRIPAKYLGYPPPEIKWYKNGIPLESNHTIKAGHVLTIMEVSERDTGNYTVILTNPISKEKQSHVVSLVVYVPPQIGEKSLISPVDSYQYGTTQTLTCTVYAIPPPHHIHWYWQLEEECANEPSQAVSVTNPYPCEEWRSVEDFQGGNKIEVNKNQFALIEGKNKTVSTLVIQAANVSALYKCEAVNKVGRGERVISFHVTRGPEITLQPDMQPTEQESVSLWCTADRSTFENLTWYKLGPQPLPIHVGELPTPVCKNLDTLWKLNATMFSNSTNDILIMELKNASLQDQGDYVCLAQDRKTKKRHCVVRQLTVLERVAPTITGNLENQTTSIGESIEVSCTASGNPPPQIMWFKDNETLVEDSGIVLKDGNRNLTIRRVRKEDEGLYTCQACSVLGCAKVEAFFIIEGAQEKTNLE

[2] = molecular target: T2, rat VEGFR2 (rat, UniProt O08775 20-760, limits assumed); assay: Biacore
T2 construct: Antigen in the Biacore assay
T2 sequence (O08775 20-760 limits assumed): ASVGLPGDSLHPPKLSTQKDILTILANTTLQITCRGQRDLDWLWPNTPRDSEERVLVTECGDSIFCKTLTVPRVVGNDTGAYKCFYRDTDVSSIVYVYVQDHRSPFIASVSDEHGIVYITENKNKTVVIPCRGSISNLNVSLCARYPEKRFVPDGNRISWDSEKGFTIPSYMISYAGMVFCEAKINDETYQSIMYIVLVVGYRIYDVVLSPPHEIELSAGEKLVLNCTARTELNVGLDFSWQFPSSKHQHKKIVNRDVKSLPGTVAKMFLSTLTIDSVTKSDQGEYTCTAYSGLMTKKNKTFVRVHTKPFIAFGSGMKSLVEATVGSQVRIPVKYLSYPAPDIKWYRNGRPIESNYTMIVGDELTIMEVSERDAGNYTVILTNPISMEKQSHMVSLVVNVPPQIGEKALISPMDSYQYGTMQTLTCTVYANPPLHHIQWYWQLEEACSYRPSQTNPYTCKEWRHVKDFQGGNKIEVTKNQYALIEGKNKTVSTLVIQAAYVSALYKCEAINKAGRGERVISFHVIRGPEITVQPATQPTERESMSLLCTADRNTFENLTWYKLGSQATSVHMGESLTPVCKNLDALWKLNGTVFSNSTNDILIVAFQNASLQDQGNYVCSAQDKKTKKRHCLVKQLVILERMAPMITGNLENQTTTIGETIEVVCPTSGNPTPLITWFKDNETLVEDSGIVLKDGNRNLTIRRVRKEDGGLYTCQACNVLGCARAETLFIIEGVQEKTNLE

[3] = molecular target: T3, murine VEGFR2 (murine, UniProt P35918 20-762, limits assumed); assay: Biacore
T3 construct: Antigen in the ELISA and Biacore assays; also called mVEGFR2; mouse VEGFR2
T3 sequence (P35918 20-762 limits assumed): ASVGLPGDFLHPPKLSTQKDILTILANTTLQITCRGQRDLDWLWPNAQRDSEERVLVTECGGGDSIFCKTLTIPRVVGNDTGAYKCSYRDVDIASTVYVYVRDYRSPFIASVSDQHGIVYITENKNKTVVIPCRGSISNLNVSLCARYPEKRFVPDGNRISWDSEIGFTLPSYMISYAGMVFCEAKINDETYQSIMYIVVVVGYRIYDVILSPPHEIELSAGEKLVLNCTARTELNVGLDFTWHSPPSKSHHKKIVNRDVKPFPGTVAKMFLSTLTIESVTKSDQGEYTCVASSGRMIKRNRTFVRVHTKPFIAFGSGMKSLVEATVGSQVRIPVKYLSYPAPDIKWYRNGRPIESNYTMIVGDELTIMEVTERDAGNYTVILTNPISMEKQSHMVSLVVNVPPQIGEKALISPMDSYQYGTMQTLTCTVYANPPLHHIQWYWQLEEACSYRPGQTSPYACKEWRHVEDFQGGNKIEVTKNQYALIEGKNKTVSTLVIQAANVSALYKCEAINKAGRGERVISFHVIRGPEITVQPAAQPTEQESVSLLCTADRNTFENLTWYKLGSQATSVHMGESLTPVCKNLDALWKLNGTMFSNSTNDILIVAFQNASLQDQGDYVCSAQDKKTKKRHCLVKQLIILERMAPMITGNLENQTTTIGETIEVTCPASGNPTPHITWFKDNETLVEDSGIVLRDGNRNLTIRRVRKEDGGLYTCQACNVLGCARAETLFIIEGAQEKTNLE

[4] = molecular target: T3, murine VEGFR2; assay: ELISA, binding to mVEGFR2 (right panel)
[5] = molecular target: T1, human VEGFR2; assay: ELISA, binding to hVEGFR2 (left panel)
[6] = molecular target: T1, human VEGFR2; assay: blocking ELISA, hVEGF binding to hVEGFR2 (left panel) [continued) B]
[7] = molecular target: T4, human VEGFR2 expressed on HUVEC and on KDR-PAE cells (human, UniProt P35968 20-1356); assay: cell binding (MFI), KDR-PAE cells
T4 construct: whole, on cells; also called hVEGFR2; hVEGR2
T4 sequence (P35968 20-1356): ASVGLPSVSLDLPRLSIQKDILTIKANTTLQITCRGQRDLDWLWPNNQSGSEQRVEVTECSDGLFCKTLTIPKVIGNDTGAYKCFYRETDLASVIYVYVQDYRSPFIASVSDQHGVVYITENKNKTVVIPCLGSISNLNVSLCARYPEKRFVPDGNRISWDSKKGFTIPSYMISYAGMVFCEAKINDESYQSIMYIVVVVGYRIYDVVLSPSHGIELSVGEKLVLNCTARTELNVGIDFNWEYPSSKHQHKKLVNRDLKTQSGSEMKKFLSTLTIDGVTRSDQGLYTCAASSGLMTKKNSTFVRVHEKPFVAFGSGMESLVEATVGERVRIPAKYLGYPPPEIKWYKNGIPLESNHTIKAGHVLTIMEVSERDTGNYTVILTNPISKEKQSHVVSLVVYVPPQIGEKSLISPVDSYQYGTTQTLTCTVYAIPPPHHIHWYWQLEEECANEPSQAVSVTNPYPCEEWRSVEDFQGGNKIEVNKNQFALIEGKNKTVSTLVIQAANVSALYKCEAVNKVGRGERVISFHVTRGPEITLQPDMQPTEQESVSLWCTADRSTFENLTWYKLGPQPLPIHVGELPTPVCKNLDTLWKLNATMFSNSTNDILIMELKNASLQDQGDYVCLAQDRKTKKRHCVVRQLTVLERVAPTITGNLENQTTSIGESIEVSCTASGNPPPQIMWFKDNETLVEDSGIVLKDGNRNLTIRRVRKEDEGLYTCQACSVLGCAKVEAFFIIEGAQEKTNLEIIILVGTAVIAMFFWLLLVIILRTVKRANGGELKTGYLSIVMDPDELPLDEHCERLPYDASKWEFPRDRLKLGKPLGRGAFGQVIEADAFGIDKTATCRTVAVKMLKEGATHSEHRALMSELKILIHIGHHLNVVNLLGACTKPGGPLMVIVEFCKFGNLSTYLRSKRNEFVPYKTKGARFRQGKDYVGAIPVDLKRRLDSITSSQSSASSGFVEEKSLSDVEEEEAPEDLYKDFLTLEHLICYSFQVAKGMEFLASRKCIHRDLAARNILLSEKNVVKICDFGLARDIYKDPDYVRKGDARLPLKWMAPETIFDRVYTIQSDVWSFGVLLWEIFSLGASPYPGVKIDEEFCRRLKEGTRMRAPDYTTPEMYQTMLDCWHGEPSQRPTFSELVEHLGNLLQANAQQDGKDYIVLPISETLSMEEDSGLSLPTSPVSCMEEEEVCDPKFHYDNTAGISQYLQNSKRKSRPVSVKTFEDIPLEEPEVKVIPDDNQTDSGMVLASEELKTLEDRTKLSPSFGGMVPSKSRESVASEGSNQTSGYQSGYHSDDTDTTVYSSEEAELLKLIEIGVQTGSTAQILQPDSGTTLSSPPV

[8] = molecular target: T3, murine VEGFR2; assay: blocking ELISA, mVEGF binding to mVEGFR2 (right panel) [continued) B]
[9] = molecular target: T3, murine VEGFR2; assay: ELISA, binding to mVEGFR2 (right panel); detected with a different secondary antibody

Kd [1] [nM]	Kd [2] [nM]	Kd [3] [nM]	EC50 (read off the curve) [4] [nM]	EC50 (read off the curve) [5] [nM]	IC50 (read off the curve) [6] [nM]	EC50 (read off the curve) [7] [nM]	IC50 (read off the curve) [8] [nM]	EC50 (read off the curve) [9] [nM]	Binder
7.65	43.1	79.2							B1
2.51	13.9	29.4	~0.1	~0.1	~0.4	~0.3	~0.5		B2
	31.2								B3
							~0.6	~0.3	B4
